The text below walks through data of paper PMC12727980.

The target of series [1] is T1, GST-KH (Bicc1 KH domains) (UniProt Q99MQ1).
T1 sequence (Q99MQ1 whole entry, looked up): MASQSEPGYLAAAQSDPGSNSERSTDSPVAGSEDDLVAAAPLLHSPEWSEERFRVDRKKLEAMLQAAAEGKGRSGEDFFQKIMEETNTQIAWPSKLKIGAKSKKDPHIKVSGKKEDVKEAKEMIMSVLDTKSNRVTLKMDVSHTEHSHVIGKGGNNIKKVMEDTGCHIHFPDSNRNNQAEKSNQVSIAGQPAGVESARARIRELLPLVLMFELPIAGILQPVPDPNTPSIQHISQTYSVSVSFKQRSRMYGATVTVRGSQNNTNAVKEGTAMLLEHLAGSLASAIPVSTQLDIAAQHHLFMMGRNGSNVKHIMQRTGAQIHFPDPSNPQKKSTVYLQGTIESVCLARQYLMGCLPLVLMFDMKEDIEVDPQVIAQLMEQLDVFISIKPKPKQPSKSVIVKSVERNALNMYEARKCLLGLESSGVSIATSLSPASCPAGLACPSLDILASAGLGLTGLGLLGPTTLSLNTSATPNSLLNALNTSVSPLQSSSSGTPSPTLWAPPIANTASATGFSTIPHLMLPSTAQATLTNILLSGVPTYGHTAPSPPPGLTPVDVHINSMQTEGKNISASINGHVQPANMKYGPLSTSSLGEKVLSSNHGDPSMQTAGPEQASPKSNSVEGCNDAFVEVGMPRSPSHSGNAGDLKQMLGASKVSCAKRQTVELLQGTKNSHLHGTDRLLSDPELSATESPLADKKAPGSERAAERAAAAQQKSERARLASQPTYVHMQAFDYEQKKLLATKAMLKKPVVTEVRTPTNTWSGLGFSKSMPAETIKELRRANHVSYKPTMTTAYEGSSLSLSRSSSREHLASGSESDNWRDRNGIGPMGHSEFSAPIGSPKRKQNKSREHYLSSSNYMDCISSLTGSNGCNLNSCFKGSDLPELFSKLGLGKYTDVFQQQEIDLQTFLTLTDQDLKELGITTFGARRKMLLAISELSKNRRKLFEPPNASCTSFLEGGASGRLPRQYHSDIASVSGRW
Nature of the series: EMSA. Conditions: EMSA buffer 1X: 10 mM Tris-HCl pH 8.0, 100 mM KCl, 2.5 mM MgCl2, 2.5% glycerol (slightly below 1X in some mixes); about 1 mM DTT, 0.05 ug/uL yeast tRNA; 50 nM ….

Series [2] has as its target T1, GST-KH (Bicc1 KH domains). Nature of the series: competition. The conditions noted are these: EMSA buffer 1X: 10 mM Tris-HCl pH 8.0, 100 mM KCl, 2.5 mM MgCl2, 2.5% glycerol (slightly below 1X in some mixes); about 1 mM DTT, 0.05 ug/uL yeast tRNA; 50 nM …. (In general: In EMSA bound probe runs differently from free probe, usually more slowly.)

Broadly, the Kd is the equilibrium constant for the complex coming apart. A high value points to lower affinity. In general, IC50 refers to the concentration that inhibits the measured activity by half. A higher IC50 goes with weaker potency in that assay.

“GAAGAAAGACGUGACCUGAAUGAUGUGCAUCGGGUCAAGAGAGCAGAAACACGUACCGAGAUGGUGCGC / CGCACCATCTCGGTACGTG [Dand5 3'UTR66-110 WT Tag#2 annealed to Probe #2]”: the Kd in series [1] amounted to 109 nM.
As for “GAAGAAAAAGGUGACCUGAAUGAUGUGCAUCGGGUCAAGAGAGCAGAA [Dand5 3'UTR66-110 Mut untagged competitor]”, in series [2], the IC50 was more than 1000 nM.
The sequence “GAAGAAAGACGUGACCUGAAUGAUGUGCAUCGGGUCAAGAGAGCAGAAUGUCUGGGCAACAGGCUCAGG / CTGAGCCTGTTGCCCAGAC [Dand5 3'UTR66-110 WT Tag#1 annealed to Probe #1]” registered a Kd in series [1] of 103 nM.
